Molecular target: T1, PPE19-GST-bio (biotinylated PPE19 with an N-terminal GST tag) (Mycobacterium tuberculosis H37Rv, UniProt P9WI25 1-396)
T1 construct: also called biotinylated PPE19-GST; not shown: GST, N-terminal, kept
T1 sequence: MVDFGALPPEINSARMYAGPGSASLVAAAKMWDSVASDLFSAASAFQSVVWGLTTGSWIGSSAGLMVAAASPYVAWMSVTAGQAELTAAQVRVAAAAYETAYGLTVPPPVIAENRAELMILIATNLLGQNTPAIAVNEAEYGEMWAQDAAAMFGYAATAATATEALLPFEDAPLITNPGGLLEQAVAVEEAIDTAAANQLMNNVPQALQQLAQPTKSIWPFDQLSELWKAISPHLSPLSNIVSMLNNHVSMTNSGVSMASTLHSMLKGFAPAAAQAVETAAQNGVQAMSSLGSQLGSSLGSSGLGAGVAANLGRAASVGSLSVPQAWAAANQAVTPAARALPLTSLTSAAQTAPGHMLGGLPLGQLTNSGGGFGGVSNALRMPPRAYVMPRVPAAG
Assay: AlphaScreen or HTRF
Conditions: both partners purified

B1: PE13-His (PE13 with a polyhistidine affinity tag) (natural protein)
chain: MSFVMAYPEMLAAAADTLQSIGATTVASNAAAAAPTTGVVPPAADEVSALTAAHFAAHAAMYQSVSARAAAIHDQFVATLASSASSYAATEVANAAAAS
Does B1 bind?
Result: binds
